The source of these data is patent publication US20230365700A1 (BIOSION, published 2023).

Assay [1] deals with T1, full length human CD40 (uniprot #P25942-1, SEQ ID NO: 30) on 293T cells (human, UniProt P25942 21-277). Briefly: flow cytometry (FACS) on 293T-CD40 cells expressing full length human CD40; MFI. The procedure:
(§1) 2×10⁵ cells were incubated in each well of 96 well-plates in 100 μl anti-CD40 antibodies of the disclosure or controls of various concentrations (starting at 80 nM with a 4-fold serial dilution) in FACS buffer for 40 minutes on ice. […] Following an incubation of 40 minutes at 4° C. in dark, cells were washed three times and resuspended in FACS buffer. Fluorescence was measured using a Becton Dickinson FACS Canto II-HTS equipment and plotted against antibody concentration. Data was analyzed using Graphpad Prism software and EC₅₀ values were reported.

The target in assay [2] is T2, human CD40-Fc protein (amino acid residue 21-193 of SEQ ID NO: 30 linked to N-terminus of amino acid residue … (human, biotin-labeled in the capture ELISA and the benchmark blocking ELISA; unlabeled when coated in the ligand blocking ELISA).
T2 construct: also called biotin-labeled human CD40-Fc; human CD40-Fc-biotin
Put plainly: competitive ELISA: antibody added to coated human CD40-Fc, then biotin-labeled human CD40L-his (95 ng/mL); blocked ligand: CD40L-his; OD(450-630). The procedure:
(§2) The abilities of anti-CD40 antibodies to block CD40-CD40L binding were measured in a competitive ELISA assay. Briefly, 100 μl human CD40-Fc protein (amino acid residue 21-193 of SEQ ID NO: 30 linked to N-terminus of amino acid residue 99-330 of SEQ ID NO.:28) was coated on 96-well micro plates at 2 μg/mL in coating buffer (carbonate/bicarbonate buffer) and incubated overnight at 4° C. The next day, plates were washed once with wash buffer (PBS+0.05% v/v Tween-20, PBST), and blocked with 5% w/v non-fatty milk in PBST for 2 hours at 37° C. Plates were then washed 4 times using wash buffer.
Serially diluted anti-CD40 antibodies of the disclosure or controls (starting at 200 nM with a five-fold serial dilution) in PBST with 2.5% w/v non-fatty milk were added to the CD40-Fc bound plates, 100 μl per well, and incubated at 37° C. for 40 minutes. Plates were washed 4 times again using wash buffer, and then added and incubated for 40 minutes at 37° C. with 100 μl/well 95 ng/mL biotin-labeled human CD40L-his protein (Sino biological Inc., Cat #10239-H08E). Plates were washed again using wash buffer. Thereafter, the plates were added with 100 μl/well of streptavidin conjugated HRP (1:10000 dilution in PBST buffer, Jackson Immunoresearch, Cat #016-030-084) and incubated for 40 minutes at 37° C. Plates were washed again using wash buffer. Finally, TMB was added and the reaction was stopped using 1M H2504, and the absorbance of each well was read on a microplate reader using dual wavelength mode with 450 nm for TMB and 630 nm as the reference wavelength, then the OD (450-630) values were plotted against antibody concentration. Data was analyzed using Graphpad Prism software and IC₅₀ values were reported.

In assay [3] the target is T2, human CD40-Fc protein (amino acid …). Put plainly: capture ELISA: antibody captured on goat anti-mouse IgG F(ab')2-specific coat, detected with biotin-labeled human CD40-Fc (1.15 nM) and streptavidin-HRP; OD(450-630). The procedure: (§3) Plates were washed once with wash buffer (PBS+0.05% v/v Tween-20, PBST) and then blocked with 200 μl/well blocking buffer (5% w/v non-fatty milk in PBST) for 2 hours at 37° C. Plates were washed 4 times and incubated with 100 μl/well serially diluted anti-CD40 antibodies of the disclosure, BM1, BM2 and negative control hIgG (human immunoglobulin (pH4) for intravenous injection, Hualan Biological Engineering Inc.) (5-fold serial dilution in 2.5% w/v non-fatty milk in PBST, starting at 66.7 nM) for 40 minutes at 37° C., and then washed 4 times again. […] After a final wash, plates were incubated with 100 μl/well ELISA substrate TMB (Innoreagents, Cat #TMB-S-002) at room temperature. The reaction was stopped in 3-10 minutes with 50 μl/well 1M H₂SO₄, and the absorbance of each well was read on a microplate reader using dual wavelength mode with 450 nm for TMB and 630 nm as the reference wavelength, then the OD (450-630) values were plotted against antibody concentration. Data was analyzed using Graphpad Prism software and EC₅₀ values were reported.

Assay [4] has as its target T1, full length human CD40 (uniprot …). Briefly: flow cytometry (FACS) on 293T-CD40 cells expressing full length human CD40; MFI. As to the method:
as §1
The source holds these as a separate data set.

The target in assay [5] is T2, human CD40-Fc protein (amino acid …). Briefly: capture ELISA: antibody captured on goat anti-mouse IgG F(ab')2-specific coat, detected with biotin-labeled human CD40-Fc (1.15 nM) and streptavidin-HRP; OD(450-630). As to the method:
as §3
The source holds these as a separate data set.

Assay [6] has the same target. Briefly: competitive ELISA: antibody pre-incubated with biotin-labeled human CD40-Fc (0.23 nM), mixture added to coated BM2; competitor: BM2; OD(450-630); only partial: OD falls from about 1.13 to a plateau of about 0.77. The procedure: (§4) The abilities of the anti-CD40 antibodies of the disclosure to block Benchmark-human CD40 binding was measured in a competitive ELISA assay. Briefly, the BM2 antibody was coated on 96-well micro plates at 1 μg/mL in PBS, 100 μl per well, and incubated overnight at 4° C. The next day, plates were washed once with wash buffer, and blocked with blocking buffer (5% w/v non-fatty milk in PBST) for 2 hours at 37° C. While blocking, the anti-CD40 antibodies of the disclosure or controls were diluted with biotin labeled human CD40-Fc protein (amino acid residue 21-193 of SEQ ID NO: 30 linked to N-terminus of amino acid residue 99-330 of SEQ ID NO.:28, 0.23 nM in 2.5% v/v non-fatty milk in PBST), starting at 66.7 nM with a 5-fold serial dilution, and incubated at room temperature for 40 minutes. After plate washing 4 times, the antibody/human CD40-Fc-biotin mixtures were added to BM2 coated plates, 100 μl/well. After incubation at 37° C. for 40 minutes, plates were washed 4 times again using wash buffer. […] Finally, TMB was added and the reaction was stopped using 1M H2504, and the absorbance was read on a microplate reader using dual wavelength mode with 450 nm for TMB and 630 nm as the reference wavelength, then the OD (450-630) values were plotted against antibody concentration. Data was analyzed using Graphpad Prism software and IC₅₀ values were reported.

Assay [7] has the same target. Put plainly: competitive ELISA: antibody added to coated human CD40-Fc, then biotin-labeled human CD40L-his (95 ng/mL); blocked ligand: CD40L-his; OD(450-630). As to the method: as §2
Serially diluted anti-CD40 antibodies of the disclosure or controls (starting at 200 nM with a five-fold serial dilution) in PBST with 2.5% w/v non-fatty milk were added to the CD40-Fc bound plates, 100 μl per well, and incubated at 37° C. for 40 minutes. […] Finally, TMB was added and the reaction was stopped using 1M H2504, and the absorbance of each well was read on a microplate reader using dual wavelength mode with 450 nm for TMB and 630 nm as the reference wavelength, then the OD (450-630) values were plotted against antibody concentration. Data was analyzed using Graphpad Prism software and IC₅₀ values were reported.
The source holds these as a separate data set.

Assay [8] has the same target. Put plainly: competitive ELISA: antibody pre-incubated with biotin-labeled human CD40-Fc (0.23 nM), mixture added to coated BM2; competitor: BM2 (self-competition); OD(450-630). As to the method: as §4
For assay [9] the target is unchanged. Described as above. As to the method:
as §4
The source holds these as a separate data set.

Assay [10] shares this target. Put plainly: competitive ELISA: antibody pre-incubated with biotin-labeled human CD40-Fc (0.23 nM), mixture added to coated BM2; competitor: BM2; OD(450-630). The procedure:
as §4

Assay [11] has the same target. Put plainly: competitive ELISA: antibody pre-incubated with biotin-labeled human CD40-Fc (0.23 nM), mixture added to coated BM2; competitor: BM2; OD(450-630); only partial: OD falls from about 1.13 to a plateau of about 0.92. As to the method: as §4
For assay [12] the target is unchanged. Briefly: capture ELISA: antibody captured on goat anti-mouse IgG F(ab')2-specific coat, detected with biotin-labeled human CD40-Fc (1.15 nM) and streptavidin-HRP; OD(450-630); the curve reaches only OD about 0.9 at the highest concentration, no plateau. As to the method:
as §3

Where two headings read alike, the source gives them in different places.

B1: mouse anti-CD40 monoclonal antibody C1H1 (antibody, V domains shown)
VH: EVKLVESGGGLVKPGASLKLSCAASGFTFSNYGISWVRQTSDKRLEWVASISSGGDNTYYPDNVKGRFTISRENAKNTLYLQMSSLKSEDTALYYCARAGEKAMDYWGQGTSVTVSS
VL: DIVLTQSPVTLSVTPGDSVSLSCRASQTINNNLHWYQQKSHESPRLLIKYASQSISGIPSRFSGSGSGTDFTLSINSVETEDFGIYFCQQFSSWPLTFGAGTKLELK
notes: Hybridoma-derived mouse mAb purified on Protein A; also called mouse C1H1; Clone C1H1
Regarding B1, the values for the EC50 in assay [1] and in [3] were 1.95 nM and 0.0774 nM, respectively. The IC50 in assay [2] came out at 7.83 nM.

B2: mouse anti-CD40 monoclonal antibody 1A3 (antibody, V domains shown)
VH: EVQLQQSGPELVKTGASVKISCKASGYSFIGYYLHWVKQSLGKGLEWIGYISCHDGTIIYNQKFKGKATFTLDTSSSTAYMQFSSLTSEDSAVYFCARFLNYYGSNYAMDYWGQGTSVTVSS
VL: DIVMTQSHKFMSTSVGDRVSITCKASQDVGPAVAWYQQKPGQSPKLLIYWASTRHTGVPDRFTGSGYGTDFTLTINNVQSEDLADYFCQQYFTYPLTFGGGTKLEIK
notes: Hybridoma-derived mouse mAb; also called Clone 1A3
On to B2, for which the figures for the EC50 in assay [4] and in [5] were 1.71 nM and 0.0906 nM, respectively. Also, the IC50 in assay [6] came to 0.18 nM.

B3: BM2 (Selicrelumab) (antibody, human IgG2, kappa, V domains shown)
VH: not shown
VL: DIQMTQSPSSVSASVGDRVTITCRASQGIYSWLAWYQQKPGKAPNLLIYTASTLQSGVPSRFSGSGSGTDFTLTISSLQPEDFATYYCQQANIFPLTFGGGTKVEIKR
notes: Benchmark antibody, made in house; also called CD40-BM2; benchmark
In the case of B3, the EC50 in assay [4] was determined as 2.01 nM; in assay [1], 3.26 nM; in [5] it was 0.637 nM; in assay [3], 0.28 nM. Besides, the IC50 was determined as 9 nM in assay [7], 9.7 nM in assay [2], 0.804 nM in [8] and 0.678 nM in [9].

B4: BM1 (Dacetuzumab) (antibody, human IgG1, kappa, V domains shown)
VH: EVQLVESGGGLVQPGGSLRLSCAASGYSFTGYYIHWVRQAPGKGLEWVARVIPNAGGTSYNQKFKGRFTLSVDNSKNTAYLQMNSLRAEDTAVYYCAREGIYWWGQGTLVTVSS
VL: DIQMTQSPSSLSASVGDRVTITCRSSQSLVHSNGNTFLHWYQQKPGKAPKLLIYTVSNRFSGVPSRFSGSGSGTDFTLTISSLQPEDFATYFCSQTTHVPWTFGQGTKVEIKR
notes: Benchmark antibody, made in house; also called CD40-BM1; benchmark
On to B4, for which the EC50 in assay [4] is 0.975 nM; in assay [1], 2.46 nM; in assay [5] it was 0.236 nM; in assay [3], 0.248 nM. The IC50 was determined as 0.234 nM in [10], 6.95 nM in assay [7] and 7.91 nM in assay [2].

B5: mouse anti-CD40 monoclonal antibody 1D1 (antibody, V domains shown)
VH: EVQLQQSGPELVKPGASVKMSCKASGYTFTDYVMHWVKQKPGQGLECIGYINPYNDGTTYNEKFKGKATLTSDKSSNAAYLELSSLTSEDSAVYYCARGFLRESWFGYWGQGTLVTVSA
VL: DVLLTQTPLSLPVSLGDQASISCRSSQNIVHSNGNTYLDWYLQKPGQSPKLLIYKVSNRFSGVPDRFSGSGSGTDFTLKISRVEAEDLGVYYCFQGSHVPPTFGGGTKLELK
notes: Hybridoma-derived mouse mAb; also called Clone 1D1
Turning to B5, the figures for the EC50 in assay [4] and in assay [12] were 1.79 nM and 10.9 nM, respectively. Further, the IC50 in [11] came to 4.84 nM.
